Experiment: soluble on expression in E. coli; label from the status in PepcDB or PDB records

Sequence	soluble on expression in E. coli
MGSDKIHHHHHHMERFPYEKLPESELKELKELGRLCRGDILKMTYIANSGHPGGSMSSIDLYLTVFKYAKLRPVDDPARDRIVISHGHTSPGVYAAMARLGFVDLDEVLAGFRHPASVFEGHVTRGVGIIDWTTGNLGQGLSAGLGFALASRFTGKDYHVFVLMSDAEQAKGQVAEARRVAKKYGVTNLTVIIDYNDAQISGRARDVMPVNIKENYLADGWRVIEIDGHDYEQIYLALKEAVEDELNPVAIIAKTVMGKGVSFMENEVKYHGKPLNREELEKALAELGIENDVDVYIEKRKQLPVEKHKKVYKTYPIKIDTGEPITYTSPTDNRSAFGKAILDLVKKNVNNPETTPIVAVDCDLKGSVKLDLLDKEFPERLLEVGVQEHNAAAMAGALSAEGVITFFADFGVFGISETYNQHRLNAINGTNLKVVVTHCGLNVGEDGKTHHGLDYVSGPMNWYGFKVIVPGDPNQTDRVVRYAAKEYGNFVIAMGRSKLPIILDENGKPFFGEGYTFEYGKIDVVRKGDDAVIITYGSTLCEAVNAADELKKEGVNVAVLNVSCPVDLDIETLKMVDGKPVLVVEDHNVFTGLGSFLGTTLLENGIIPKKYVRVGVPEFAVSGSYTMLYKLYGLDKDGIISRLREML	not soluble
MGSDKIHHHHHHMKSEDNGESWSDTYFLTHGEKWHSSACNVLFSNGNVYLAMEQRCRLNEVTGWDVAGLSPTLFRACVEDNLCLASSWSRSEKFIYKEVFDGAKLDFFGIPFYDCETNKPKEIATGINNAPLGWLEANVVKFVDKDHIWHTDLKEVFHLFLRAHTGGVNYAHLFKIEIQDDQSMIPSLEHTPSGQKISYIPFPGGHLKFFIIYDELTRFYWLVSNQATDSMRRVSSLSNIKRYGLPNNERHRLQLHFSRNCVDWCFAGMVACSTNELYSRNYPSAVIKGDDLHIVCRSADEHALNPQYNNMITHHIVSNFRQLIY	not soluble
MLYFVLCDLKFNQFSRYPMSYQKIELSISLSLDSPKLDESDFILLSVKYLEKSLGKKKEFSGFFEDIEKLYFKQNYKEAIEKILDFCKKNESLLSEQVVQRLAEVAPRLKSNPKDNESRRLYETLYADHLESVIKQESDLSVFNELRDSYNAVKPEYAVTHETEIKTLDEAKQFILSFVMLNDNVELPLKAQSERYPKKDRSREELGNTPSANPGIMKPNSPNFTDNLVPVRDVPKIAINEKVAGGYSKTKPTTPFVASLSGTTYSLMVVLTDYIEKHKTDKDIEKKVNQIINLWISSYIKEGYHSYSEVVDVLTEPFLQSIFDKANIKLNYGVLDDTHAEFRKAQDYVFGLTIQSAMHHELQERFKNKEKLQEEVKNFESGLNKLNQNVENTGRHREALNKLNEVFQDWSAGKKSYDAFKSESNQLIHDIESEEQKSNRGLGSMLKNLGNYLLYLITLRFLKEDYPKPSSPVTMLVTELRGTLEQIDHFHKTSLSLKKATQPDPKNTSSSDETADVRKSAVDTDKPSKNQDSEVKKTLDSEQLEEVQRQDDKSARLQ	not soluble
MAHHHHHHMEQQVIAVHYQRMEEWLSDRKAVLGKKHKKEFFRLMELAPKLEQLVRYEIPAQHKQNKRLSGLLDDAYGSIEDAAKARKNLEERQKRFFQEYGLVESQGAEEEDLEAVIEAKIASSTTSLNEALREFGRSPHLESFREAYVRAAKMYSMGMYDDNVFSLHLPWLDRVYQERFYKSKVDIHHHEQHQKQRAGERDQVAVKASTGPCNIDWGDEDTVDLVDVGETVEIKWDEEALEVAVEGAVRNCSENNKRMDDGCEEKPTDTVKGIFTIDVSNAAHRKNILTELQAFACFASERSSMDDESLAEPAAAVEVLVKKLTASTEAVFVRMKTTPTLRFSFMEEVRRLQRGIAAASMRKSNSQARVHQIQEEIERLGPQLDALLIAAGNCRDECLAELLKMFPGRTVTIVGDINKYL	not soluble
MAHHHHHHMERYESIAERAGFARSQVLPRGSGGSSSASVCYENAANYLQHARGADYATASCSVPVDIWDALCQGEASVLRVGQLGEGRQRLIAYESCTTSSHSGDLSSRLASLEKSLDKLLSEFPKTAEELVTLDYNASLCSAAARSVLTAVPSFLSISGLLRTINNKLCSLDGFSREVLPLMRCDDDVSRQCLLVAGRLDTLEEKLRTTEALVAALGHTSAASNAIFERIGARYGETTRAATM	not soluble
MSSPGGETSTKQQQELKAQIKIGHYILKETLGVGTFGKVKVGIHETTQYKVAVKILNRQKIKSLDVVGKIRREIQNLSLFRHPHIIRLYQVISTPSDIFMIMEHVSGGELFDYIVKHGRLKTAEARRFFQQIISGVDYCHRHMVVHRDLKPENLLLDEQNNVKIADFGLSNIMTDGDFLRTSCGSPNYAAPEVISGKLYAGPEVDVWSCGVILYALLCGTLPFDDEHVPSLFRKIKSGVFPTPDFLERPIVNLLHHMLCVDPMKRATIKDVIAHEWFQKDLPNYLFPPINESEASIVDIEAVREVTERYHVAEEEVTSALLGDDPHHHLSIAYNLIVDNKRIADETAKLSIEEFYQVTPNKGPGPVHRHPERIAASVSSKITPTLDNTEASGANRNKRAKWHLGIRSQSRPEDIMFEVFRAMKQLDMEWKVLNPYHVIVRRKPDAPAADPPKMSLQLYQVDQRSYLLDFKSLADEESGSASASSSRHASMSMPQKPAGIRGTRTSSMPQAMSMEASIEKMEVHDFSDMSCDVTPPPSPGGAKLSQTMQFFEICAALIGTLAR	not soluble
HFESIQAVNKTLNKKGLPPIIVHFIEETLQDYELIGMLNNGYIKAIVLDSHKAKLWLNAMDDIKAHKKVPLRKNGNIAWVMRQNSPQLKAVVNKFIQKSRSGTLLGNVIYSKYIDNTNWLNKALNPKKIAQLEKLSA	not soluble
MTTALHITLITETFPPEINGVANTLGRLCEGLRARGHQVELVRPRQGCDQSRASDEALLLCRGWPLPGYPGLQWGQSSMHKLLRRWKRQRPDVLYIATEGPLGLSALRAAKRLGISVVSGFHTNFQQYSSQYGLGLLTRLLTHYLRWFHNRSQLTLVPSASQHLELERRHFERLALLSRGVDSQLFHPAKRLDTLRADWGLGTDDLAVIHVGRLAQEKNLGLLKRCFERLQATYPQRRMKLIVVGDGPQRGALEKSLPEALFCGSQRGEALAAHYACGDLFLFPSLTETFGNVVLEALASGLAVVAYDQAGAAQHIRHGYNGVLAMPGDESAFCDAASWLLEEPETLRRVRLNARQHASRQGWAAVIEQFEDRLRSACEHGPAEDYEGLIEATVKPRSAVETLGTARGLPPSPPGAGSLEHHHHHH	soluble
MGSDKIHHHHHHMVDSLQKPELEELRPGIKAPAKETILTPRFYTTDFEAMAKMDLSPNEDELRAILEEFRADYNRKHFVRTPEFDGSAADMDPETKKVFVEFLEQSCTSEFSGFLLYKELSRRIKNRNPLLAECFELMARDEARHAGFLNKSMSDFDLQLDLGFLTANKKYTYFKPAYIFYATYLSEKIGYWRYITIFRHLEQHPEYRIYPIFKFFENWCQDENRHGDFFDALMKAQPSTVRGFVAKLWCRFFLLAVFATMYIRDVQRKEFYEALGLDAREYDRHVIAKTNETSARVFPVVLDVDHPKFYDRLETCIANNNQLAAIEATSAPKPVKVLRKLPYYLSNGLQLLKLYLVKPLESDVYQPAVR	not soluble
MGSDKIHHHHHHMDHQIEDLLEHWLPLADDAWVLAVITHVQGSAYRKPGAMMLFHEFGQGAGILSGGCLEADLRRYAQNAMQTKQVMCVTYDASDESDASYRLGCGGIVDIMLIPLLKENHDLGLIDLVHAFRHGQSGYYQLPLVASGTDARQYQARFYSADAAPFPISDFAKSKIVKQESNDTLVIPLRPRFHIGIFGGGIDAKPIAAIAHSLGWQVTVIDGRTAYARAADFPHAHIIKQAVGELAANVIAQLDCAVVINHNLGLDAAVLKAIQPYSLDYVALLGPAHRRDKVLAMAGLSAQSFSGVFSAPAGLALGGELPSAIALSILAQCHGVLHGATLKQLDEIMG	not soluble
MTVLAQLYYKYGTMNSGKTIEILKVAHNYEEQGKPVVIMTSSLDTRDGFGVVASRIGMRREAVTITDDMDIFAYIENMFKKPYCILIDESQFLSQKNVYDLARIVDELDVPVMAFGLKNDFQNHLFEGSRELLLLADKIEEIKTICQFCSKKATMVLRTENGRPVYKGNQIQIGGNETYIPVCRRHYFHPPIKALEHHHHHH	not soluble
GPGSMAAGNSISVKVDVPSQVKGQGTLEMSYYIYPITMRLPGFMSDARFNRRYTDFETLRGQLCATYWYCIVPPIPEKESVQDKLGKLPRMVASAKETTASEGDLLEYRRISLRRFLQRLAYHPILGKSDLLQKFTNDNEWRQCIRDPVKPPR	not soluble
MGNYFPYAFEDKRYHTWNYHLKNKFGQKIFKVALDGGFDCPNRDGTVAHGGCTFCSAAGSGDFAGNRAEPIEVQFKKIKERMHEKWSEGQYIAYFQAFTNTHAPVEVLKEKYEPVLKEDGVVGLSIATRPDCLPDDVVEYLAELNQRTYLWVELGLQTVHQSTSDLINRAHDMQTYYDGVTKLRKHNINVCTHIINGLPGENYDMMMETAKEVAQMDVQGIKIHLLHLLKGTPMVKQYEKGMLEFMSQQDYTNLVCDQLEVLPPEMIVHRITGDGPIDLMVGPMWSVNKWEVLNEIDNELARRNSYQGKMNKQSIQS	not soluble
MGSDKIHHHHHHMLQAFYTGLSGLNSYSKNLDNVSNNIANMNTAGYRGMDSFYQALGGDSDKPGLGAQISGLGYRFSVGDIRQTGNDFDLAITGTGFFALLDGEKVFYTRTGQFEFDQNNVLVDKNTGFKVAGIDSNGQLSEINLLSYQAIKPTATTKLSLTGNLSPLDDVHQISSAKMINSLGEEVDLSIKFTNEKATFPNQWKVEILDDKGIVLHSDSVKFGPDGTPEVGSGSFIFNLADSSGNTTPIDITVGTIGDFSAVTQTSATGVDSNVTLHAVDGKGVGQLVKRSFDPQGRVTLNYSNGDKVTPFTIAMVDFDDISTLSIESGTVFKASDLESRVLGKAGEGRFKQLATSSIEMSNVDLSQEFADMLVIQRGYQASSRILNVANQMIEQLYENTRGR	not soluble
MSLEVRWNEYLSRNGSLFSSDELSGASPPSVFVGSYGYPRVGVGPMVPPVHGDTSLMDAPERWAGRPLDEIVNYRLSLVRGIRKTRVTGTSGRYIEGLQEAAMSRRPVDSDIRFEKPVSPAALADGCCAPFGPVGEIRRASFGGSSADGAIERAYYDRDLGAADAAVALYDGGTEISRIQGCLSVGMLGRRRKLVPTRWSITAVDDMVSKRLVGRIKDAPVSDAHQVFHYVHMGNLFSVVLFPHRWLFEMMEAYYSGGVLGFGADHEDARGLDHAPATAGAHFASRLAVAEHLCGRGVQAGALVLREIRAEYSVPVGVWQVREGLRAAMAQKPFVAGSLDEAIDEACRPMSISRNEWLSHGSIMRLVRQRTLSEFFEGHHHHHH	not soluble
MSDAQGNTLTEEELAMLRAGDEENDNTDTIMVIRVPNDGSSATAVSIPRDTYIHDDDYGNMKINGVYGAYKDARRAELMEQGFTNESELETRAKDAGREGLIDAVSDLTGITVDHYAEVGLLGFVLLTDAVGGVEVCLNNAVDEPLSGANFPAGRQTLGGSDALSYVRQRHDLPRGDLDRIVRQQSYMASLVNQVLSSGTLTNPAKLSALADAVTRSVVIDEGWEIMSFATQLQNLAGGNVTFATIPVTSIDGTGDYGESVVTIDVNQVHAFFQEALGEAEPAPEDGSDDQSADQAPDLSEVEVHVLNASYVEGLANGIAAQLQELGYSIAETGNAAEGLYYESQILAAEEDSAKALAISEALGGLPIVANSSLDDNTVIVVSAGDYAGPTAEANALEHHHHHH	soluble
MTKFILLALVGLAAAIDFDSSSSESCEDGNGHGHGHGNGNGNGNGNGNGNGGRANGGCETGWRHFRRPSGSWCVRVFGGRLNQGAAQSQCQSFGATLSGLRNLEEARTISNLALSVIGRSSGGIWLGARRTTACAKQHKTTSCSTTSSFRWTDSSASGTAGFVWNNVQPDNSDLNSQCAVLHAGSSAATVSNAVWQPAMMDDVTCSFDPAGRDPRSIYGYVCGKKPSRR	not soluble
EGELRLGERVLVVGQRLGTIRFFGTTNFAPGYWYGIELEKPHGKNDGSVGGVQYFSCSPRYGIFAPPSRVQRVTDSLDTLSEI	soluble

Source: the DeepSol protein solubility set
